# B1: TFMG: as TFG with an MMP-2 cleavable linker (GPLGLAG) between ferritin fragment C-terminus and PC-Gla (apparently SEQ ID NO: 15) (protein)
# chain: MGGTTFLLRNASGHMSSQIRQNYSTDVEAAVNSLVNLYLQASYTYLSLGFYFDRDDVALEGVSHFFRELAEEKREGYERLLKMQNQRGGRIFLQDIKKPAEDEWGKTPDAMKAAMALEKKLNQALLDLHALGSARTDPHLCDFLETHFLDEEVKLIKKMGDHLTNLHRLGGGSEFVDGGGSGTSGPLGLAGANSFLEELRHSSLERECIEEICDFEEAKEIFQNVDDTLAFWSKHVLEHHHHHH
# modifications: Fusion polypeptide (2)
# B2: TFG: fusion polypeptide: TRAP at N-terminus and PC-Gla at C-terminus of short ferritin monomer fragment, forms nanocage (apparently SEQ ID NO: 14) (protein)
# chain: MGGTTFLLRNASGHMSSQIRQNYSTDVEAAVNSLVNLYLQASYTYLSLGFYFDRDDVALEGVSHFFRELAEEKREGYERLLKMQNQRGGRIFLQDIKKPAEDEWGKTPDAMKAAMALEKKLNQALLDLHALGSARTDPHLCDFLETHFLDEEVKLIKKMGDHLTNLHRLGGGSEFVDGGGSGTSANSFLEELRHSSLERECIEEICDFEEAKEIFQNVDDTLAFWSKHVLEHHHHHH
# modifications: Fusion polypeptide (1)
# How the values were obtained:
# [1] = tested on: VCAM-1, ICAM-1 and E-selectin on HUVECs; assay: expression of cell adhesion molecules (CAMs), whole-cell ELISA; assay type: cell-based, human; conditions: LPS 100 ng/mL, FIG. 21A
# Experimental: The expression of vascular cell adhesion molecule-1 (VCAM-1), intercellular adhesion molecule-1 (ICAM-1), and E-selectin on HUVECs were determined by a whole-cell ELISA as described. Briefly, confluent monolayers of HUVECs were treated with PC-Gla with TRAP, TFG, or TFMG for 6 h followed by LPS (100 ng/mL) for 16 h (VCAM-1 and ICAM-1) or 24 h (E-Selectin). After washing, mouse anti-human monoclonal VCAM-1 (100 μM; clone; 6C7.1), ICAM-1 (clone; P2A4) and E-selectin (clone; P3H3) antibodies (Millipore Corporation, 1:50 each) were added. After 1 h (37° C., 5% CO2), the cells were washed three times and then 1:2000 peroxidase-conjugated anti-mouse IgG antibody (100 μl; Sigma) was added for 1 h. The cells were washed again three times and developed using the o-phenylenediamine substrate (Sigma). Colorimetric analysis was performed by measuring absorbance at 490 nm. All measurements were performed in triplicate wells.
# [2] = tested on: CLP-induced sepsis; assay: serum organ injury markers (ALT, AST, creatinine, BUN, LDH) in CLP-induced sepsis; assay type: in vivo, mouse; conditions: FIG. 17
# Experimental: (§1) To induce inflammation, male mice were anesthetized with 2% isoflurane (JW Pharmaceutical, Republic of Korea) in oxygen delivered via a small rodent gas anesthesia machine (RC2, Vetequip, Pleasanton, Calif.), first in a breathing chamber and then via a facemask. They were allowed to breathe spontaneously during this procedure. The CLP-induced inflammation model was prepared as previously described. In brief, a 2-cm midline incision was made to expose the cecum and adjoining intestine. The cecum was then tightly ligated with a 3.0-silk suture at 5.0 mm from the cecal tip and punctured once using a 22-gauge needle for the induction of high grade inflammation. It was then squeezed gently to extrude a small amount of feces from the perforation site and returned to the peritoneal cavity. The laparotomy site was then sutured with 4.0-silk. In sham control animals, the cecum was exposed but not ligated or punctured and then returned to the abdominal cavity. This protocol was approved by the Animal Care Committee at Kyungpook National University prior to the conduct of the study (IRP No, KNU 2012-13).
# (§2) Fresh serum was used for assaying aspartate transaminase (AST), alanine transaminase (ALT), blood urea nitrogen (BUN), creatinine, and LDH using biochemical kits (Mybiosource). To determine the concentrations of IL-6, IL-10, and TNF-α, commercially available ELISA kits were used according to the manufacturer's protocol (R&D Systems). Values were measured using an ELISA plate reader (Tecan, Austria GmbH, Austria).
# [3] = tested on: HUVECs; assay: HUVEC cell-binding assay with fluorescence-labeled molecules (in vitro); assay type: cell-based, human; conditions: for degree of binding to HUVECs: FIG. 10, compared with PC-Gla; for in vitro binding to endothelial cells compared with PC-Gla: HUVEC, FIG. 12A
# Experimental: PC-Gla, TFG, and TFMG were labeled with FNG-456 NHS ester for in vitro assays or FNI-675 NHS ester for in vivo assays at a molar ratio of 1:3. Briefly, each molecule (10 μM) was dissolved in PBS (1.5 mL), and FNG-456 NHS ester (30 μM) or FNI-675 NHS ester (30 μM) was dissolved in DMSO (0.2 mL). Each molecule and fluorescent dye was reacted at room temperature for 3 h. The reaction product was passed through a 0.2-μm filtering unit, and the unreacted dye was separated on a PD midiTrap™ G-25 (GE Healthcare, UK) that had been pre-equilibrated in PBS with 2 mM sodium azide. This process yielded more than 2.17 μM of each nanoparticle with more than 1.5 ratio of dye per protein.
# A direct cell-binding assay was performed on HUVECs and in vivo using fluorescence labeled-PC-Gla, TFG, and TFMG. The assay was performed with PC-Gla, TFG, or TFMG treated on HUVECs, intravenously injected mice, and isolated mouse endothelial cells. The fluorescence value of the HUVECs or endothelial cells were measured with tightly bound PC-Gla, TFG, and TFMG, respectively. The concentrations of PC-Gla, TFG, and TFMG were measured by using the nanoparticle ratio of fluorescent dye per protein.
# [4] = tested on: CLP-induced sepsis; assay: in vivo vascular permeability assay (Evans blue leakage); parameters: species or system mouse; conditions: CLP-operated mice, intravenous, FIG. 20
# Experimental: CLP-operated mice were injected with PC-Gla with TRAP, TFG, or TFMG intravenously. After 6 h, 1% Evans blue dye solution in normal saline was injected intravenously into each mouse. Thirty minutes later, the mice were sacrificed, and the peritoneal exudates were collected after being washed with normal saline (5 mL) and centrifuged at 200×g for 10 min. The absorbance of the supernatant was read at 650 nm. The vascular permeability was expressed in terms of dye (mg/mouse), which leaked into the peritoneal cavity according to a standard curve of Evans blue dye, as previously described.
# [5] = tested on: IL-6, IL-10, TNF-α; assay: blood inflammatory cytokines (ELISA) in CLP-induced sepsis; assay type: in vivo, mouse; conditions: for level of IL-6 / level of IL-10: FIG. 18A; for level of TNF-α: FIG. 18B
# Experimental: as §1, §2
# [6] = tested on: CLP-induced sepsis; assay: H&E staining and histopathological examination of lung in CLP-induced sepsis; assay type: in vivo, mouse; conditions: for interstitial edema, infiltration of inflammatory cells and damage of pulmonary architecture: 200 nM intravenously 6 h after CLP, lungs 96 h after CLP, FIG. 15; for histopathologic score of pulmonary injury: in comparison with co-administration of PC-Gla and TRAP, FIG. 16
# Experimental: as §1
# Male C57BL/6 mice underwent CLP and were administered PC-Gla with TRAP, TFG, or TFMG (200 nM) intravenously at 6 h after CLP (n=5). Mice were euthanized 96 h after CLP. To analyze the phenotypic change of the lungs in mice, lung samples were removed from each mouse, washed tree times in PBS (pH 7.4) to remove remaining blood, fixed in 4% formaldehyde solution (Junsei, Tokyo, Japan) in PBS, pH 7.4 for 20 h at 4° C. After fixation, the samples were dehydrated through ethanol series, embedded in paraffin, sectioned into 4-μm sections, and placed on a slide. The slides were de-paraffinized in a 60° C. oven, rehydrated, and stained with hematoxylin (Sigma). To remove over-staining, the slides were quick dipped three times in 0.3% acid alcohol, and counterstained with eosin (Sigma). They are then washed in ethanol series and xylene, and then coverslipped. Light microscopic analysis of lung specimens was performed by blinded observation to evaluate pulmonary architecture, tissue edema, and infiltration of the inflammatory cells. The results were classified into four grades where Grade 1 represented normal histopathology; Grade 2 represented minimal neutrophil leukocyte infiltration; Grade 3 represented moderate neutrophil leukocyte infiltration, perivascular edema formation, and partial destruction of pulmonary architecture; and Grade 4 included dense neutrophil leukocyte infiltration, abscess formation, and complete destruction of pulmonary architecture.
Molecule,LPS-mediated upregulation of CAMs [1],toxicity indicator for general organs (LDH) [2],toxicity indicators for kidneys (creatinine and BUN) [2],toxicity indicators for liver (ALT and AST) [2],degree of binding to HUVECs [3],in vitro binding to endothelial cells compared with PC-Gla [3],in vivo vascular permeability [4],level of IL-6 [5],level of IL-10 [5],level of TNF-α [5],"interstitial edema, infiltration of inflammatory cells and damage of pulmonary architecture [6]",histopathologic score of pulmonary injury [6]
B1,inhibited,considerably improved,considerably improved,considerably improved,strong binding affinities which are equivalent to that of PC-Gla,"bound more strongly to, and stayed longer on, endothelial cells than PC-Gla did",alleviated,mitigated,mitigated,mitigated,significantly alleviated,significantly superior effect
B2,inhibited,considerably improved,considerably improved,considerably improved,strong binding affinities which are equivalent to that of PC-Gla,"bound more strongly to, and stayed longer on, endothelial cells than PC-Gla did",alleviated,mitigated,mitigated,mitigated,significantly alleviated,significantly superior effect
